Test results taken from US20130156786A1.

What was measured:
[1] = target: human α2β1 integrin on human platelets (human) (UniProt P17301); test: FACS of human blood platelets, secondary antibody only, without primary antibody (negative control)
[2] = target: macaca fascicularis α2β1 integrin on platelets (macaca fascicularis); test: FACS of macaca blood platelets, secondary antibody only, without primary antibody (negative control)

Sequence of human α2β1 integrin on human platelets (human) (P17301 30-1181 limits assumed, chain 1 of 2): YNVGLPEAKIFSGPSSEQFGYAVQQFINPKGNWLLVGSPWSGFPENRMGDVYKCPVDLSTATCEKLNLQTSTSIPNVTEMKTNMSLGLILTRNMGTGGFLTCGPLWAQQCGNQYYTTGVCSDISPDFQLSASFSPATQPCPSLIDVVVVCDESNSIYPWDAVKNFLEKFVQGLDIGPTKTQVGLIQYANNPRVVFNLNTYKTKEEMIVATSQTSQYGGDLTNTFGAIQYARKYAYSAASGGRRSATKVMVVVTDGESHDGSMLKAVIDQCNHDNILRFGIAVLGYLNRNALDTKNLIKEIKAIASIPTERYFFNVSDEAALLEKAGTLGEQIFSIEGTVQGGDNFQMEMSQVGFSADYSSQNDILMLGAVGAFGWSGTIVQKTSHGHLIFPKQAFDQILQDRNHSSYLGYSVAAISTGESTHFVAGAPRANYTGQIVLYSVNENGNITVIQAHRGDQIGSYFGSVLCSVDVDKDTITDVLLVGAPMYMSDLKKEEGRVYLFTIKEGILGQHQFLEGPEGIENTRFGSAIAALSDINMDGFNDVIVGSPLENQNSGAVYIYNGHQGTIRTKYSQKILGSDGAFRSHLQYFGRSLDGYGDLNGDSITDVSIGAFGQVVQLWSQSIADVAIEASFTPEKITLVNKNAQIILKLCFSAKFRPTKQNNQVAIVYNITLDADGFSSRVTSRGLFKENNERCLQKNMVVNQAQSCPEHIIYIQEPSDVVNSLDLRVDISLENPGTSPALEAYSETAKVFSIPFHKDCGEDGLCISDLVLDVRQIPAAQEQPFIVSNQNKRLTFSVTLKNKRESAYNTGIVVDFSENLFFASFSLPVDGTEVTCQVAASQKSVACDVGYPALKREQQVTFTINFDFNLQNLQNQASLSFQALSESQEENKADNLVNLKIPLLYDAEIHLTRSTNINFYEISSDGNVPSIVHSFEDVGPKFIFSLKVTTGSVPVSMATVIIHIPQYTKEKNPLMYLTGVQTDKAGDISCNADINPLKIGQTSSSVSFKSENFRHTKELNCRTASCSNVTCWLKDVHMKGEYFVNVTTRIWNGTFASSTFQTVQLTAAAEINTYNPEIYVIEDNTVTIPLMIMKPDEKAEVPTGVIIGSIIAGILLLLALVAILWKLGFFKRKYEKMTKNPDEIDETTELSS
Sequence of human α2β1 integrin on human platelets (human) (chain, as listed by the source limits assumed, chain 2 of 2): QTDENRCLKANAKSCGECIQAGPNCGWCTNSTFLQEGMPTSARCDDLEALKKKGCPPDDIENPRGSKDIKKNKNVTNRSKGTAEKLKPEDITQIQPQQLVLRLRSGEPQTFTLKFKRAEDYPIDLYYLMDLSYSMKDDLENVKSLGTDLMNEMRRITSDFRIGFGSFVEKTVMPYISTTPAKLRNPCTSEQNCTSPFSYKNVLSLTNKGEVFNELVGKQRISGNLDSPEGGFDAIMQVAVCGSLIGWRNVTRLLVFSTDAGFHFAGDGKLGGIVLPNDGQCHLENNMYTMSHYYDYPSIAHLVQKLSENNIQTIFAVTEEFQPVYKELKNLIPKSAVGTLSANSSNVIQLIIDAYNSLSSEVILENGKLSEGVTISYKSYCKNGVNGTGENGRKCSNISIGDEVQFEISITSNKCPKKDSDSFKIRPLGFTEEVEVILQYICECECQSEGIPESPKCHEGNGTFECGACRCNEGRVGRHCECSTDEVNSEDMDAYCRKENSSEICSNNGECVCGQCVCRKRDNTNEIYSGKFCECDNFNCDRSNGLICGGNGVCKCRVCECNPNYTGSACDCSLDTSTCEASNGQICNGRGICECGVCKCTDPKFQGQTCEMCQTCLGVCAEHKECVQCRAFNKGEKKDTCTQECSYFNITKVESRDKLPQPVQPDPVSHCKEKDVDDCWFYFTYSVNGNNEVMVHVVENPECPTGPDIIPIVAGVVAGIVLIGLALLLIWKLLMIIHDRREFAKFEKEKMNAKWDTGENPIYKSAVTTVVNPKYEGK

% positives [1]: 0.5%
% positives [2]: 0.6%
Substance: anti mouse-IgG-PE (antibody)
